{
  "source": "paper PMC6551275",
  "about": "(Structure (London, England : 1993), 2019)",
  "binders": {"B1": {"name": "UBQLN2 450–624 P506A (domain or fragment)", "chain": "RAMQALMQIQQGLQTLATEAPGLIPSFTPGVGVGVLGTAIGPVGPVTPIGPIGPIVAFTPIGPIGPIGPTGPAAPPGSTGSGGPTGPTVSSAAPSETTSPTSESGPNQQFIQQMVQALAGANAPQLPNPEVRFQQQLEQLNAMGFLNREANLQALIATGGDINAAIERLLGSQPSW"}, "B2": {"name": "UBQLN2 450–624 P497H (domain or fragment)", "chain": "RAMQALMQIQQGLQTLATEAPGLIPSFTPGVGVGVLGTAIGPVGPVTHIGPIGPIVPFTPIGPIGPIGPTGPAAPPGSTGSGGPTGPTVSSAAPSETTSPTSESGPNQQFIQQMVQALAGANAPQLPNPEVRFQQQLEQLNAMGFLNREANLQALIATGGDINAAIERLLGSQPSW"}, "B3": {"name": "UBQLN2 450–624 P500S (domain or fragment)", "chain": "RAMQALMQIQQGLQTLATEAPGLIPSFTPGVGVGVLGTAIGPVGPVTPIGSIGPIVPFTPIGPIGPIGPTGPAAPPGSTGSGGPTGPTVSSAAPSETTSPTSESGPNQQFIQQMVQALAGANAPQLPNPEVRFQQQLEQLNAMGFLNREANLQALIATGGDINAAIERLLGSQPSW"}, "B4": {"name": "UBQLN2 450–624 P509S (domain or fragment)", "chain": "RAMQALMQIQQGLQTLATEAPGLIPSFTPGVGVGVLGTAIGPVGPVTPIGPIGPIVPFTSIGPIGPIGPTGPAAPPGSTGSGGPTGPTVSSAAPSETTSPTSESGPNQQFIQQMVQALAGANAPQLPNPEVRFQQQLEQLNAMGFLNREANLQALIATGGDINAAIERLLGSQPSW"}, "B5": {"name": "UBQLN2 450–624 P506S (domain or fragment)", "chain": "RAMQALMQIQQGLQTLATEAPGLIPSFTPGVGVGVLGTAIGPVGPVTPIGPIGPIVSFTPIGPIGPIGPTGPAAPPGSTGSGGPTGPTVSSAAPSETTSPTSESGPNQQFIQQMVQALAGANAPQLPNPEVRFQQQLEQLNAMGFLNREANLQALIATGGDINAAIERLLGSQPSW"}, "B6": {"name": "UBQLN2 450–624 (domain or fragment)", "chain": "RAMQALMQIQQGLQTLATEAPGLIPSFTPGVGVGVLGTAIGPVGPVTPIGPIGPIVPFTPIGPIGPIGPTGPAAPPGSTGSGGPTGPTVSSAAPSETTSPTSESGPNQQFIQQMVQALAGANAPQLPNPEVRFQQQLEQLNAMGFLNREANLQALIATGGDINAAIERLLGSQPSW"}, "B7": {"name": "UBQLN2 450–624 P497L (domain or fragment)", "chain": "RAMQALMQIQQGLQTLATEAPGLIPSFTPGVGVGVLGTAIGPVGPVTLIGPIGPIVPFTPIGPIGPIGPTGPAAPPGSTGSGGPTGPTVSSAAPSETTSPTSESGPNQQFIQQMVQALAGANAPQLPNPEVRFQQQLEQLNAMGFLNREANLQALIATGGDINAAIERLLGSQPSW"}, "B8": {"name": "UBQLN2 450–624 P497S (domain or fragment)", "chain": "RAMQALMQIQQGLQTLATEAPGLIPSFTPGVGVGVLGTAIGPVGPVTSIGPIGPIVPFTPIGPIGPIGPTGPAAPPGSTGSGGPTGPTVSSAAPSETTSPTSESGPNQQFIQQMVQALAGANAPQLPNPEVRFQQQLEQLNAMGFLNREANLQALIATGGDINAAIERLLGSQPSW"}, "B9": {"name": "UBQLN2 450–624 T487I (domain or fragment)", "chain": "RAMQALMQIQQGLQTLATEAPGLIPSFTPGVGVGVLGIAIGPVGPVTPIGPIGPIVPFTPIGPIGPIGPTGPAAPPGSTGSGGPTGPTVSSAAPSETTSPTSESGPNQQFIQQMVQALAGANAPQLPNPEVRFQQQLEQLNAMGFLNREANLQALIATGGDINAAIERLLGSQPSW"}, "B10": {"name": "UBQLN2 450–624 P506T (domain or fragment)", "chain": "RAMQALMQIQQGLQTLATEAPGLIPSFTPGVGVGVLGTAIGPVGPVTPIGPIGPIVTFTPIGPIGPIGPTGPAAPPGSTGSGGPTGPTVSSAAPSETTSPTSESGPNQQFIQQMVQALAGANAPQLPNPEVRFQQQLEQLNAMGFLNREANLQALIATGGDINAAIERLLGSQPSW"}, "B11": {"name": "UBQLN2 450–624 A488T (domain or fragment)", "chain": "RAMQALMQIQQGLQTLATEAPGLIPSFTPGVGVGVLGTTIGPVGPVTPIGPIGPIVPFTPIGPIGPIGPTGPAAPPGSTGSGGPTGPTVSSAAPSETTSPTSESGPNQQFIQQMVQALAGANAPQLPNPEVRFQQQLEQLNAMGFLNREANLQALIATGGDINAAIERLLGSQPSW"}},
  "key": {"[1]": {"molecular_target": "the molecule itself", "assay": "SEC"}, "[2]": {"molecular_target": "the molecule itself", "assay": "NMR titration"}, "[3]": {"molecular_target": "Ubiquitin (UniProt P0CG48 1-76)", "assay": "NMR titration"}, "[4]": {"molecular_target": "the molecule itself", "assay": "AUC"}},
  "data": [
    {"binder": "B1", "values": [
      {"measurement": "binding result", "setting": "[1]", "value": "binds"}
    ]},
    {"binder": "B2", "values": [
      {"measurement": "binding result", "setting": "[1]", "value": "binds"}
    ]},
    {"binder": "B3", "values": [
      {"measurement": "binding result", "setting": "[2]", "value": "binds"}
    ]},
    {"binder": "B4", "values": [
      {"measurement": "binding result", "setting": "[2]", "value": "binds"}
    ]},
    {"binder": "B5", "values": [
      {"measurement": "binding result", "setting": "[1]", "value": "binds"}
    ]},
    {"binder": "B6", "values": [
      {"measurement": "binding result", "setting": "[3]", "value": "binds"}
    ]},
    {"binder": "B7", "values": [
      {"measurement": "binding result", "setting": "[4]", "value": "binds"}
    ]},
    {"binder": "B8", "values": [
      {"measurement": "binding result", "setting": "[4]", "value": "binds"}
    ]},
    {"binder": "B9", "values": [
      {"measurement": "binding result", "setting": "[4]", "value": "binds"}
    ]},
    {"binder": "B10", "values": [
      {"measurement": "binding result", "setting": "[1]", "value": "binds"}
    ]},
    {"binder": "B11", "values": [
      {"measurement": "binding result", "setting": "[1]", "value": "binds"}
    ]}
  ]
}
